Data as given in US20230143604A1, “QW DOSING OF GIP RECEPTOR AGONIST PEPTIDE COMPOUNDS AND USES THEREOF” (TAKEDA PHARMACEUTICAL COMPANY LIMITED, priority 2020, published 2023).
Starred links: 1 amine or outer side, 2 acyl side, 3 side chain; linkers in the order of their positions; H or OH if unused. Non-standard residues stand in square brackets, D forms with d. Groups on a side chain read outwards from the residue. No end group written: not given here. *: point of attachment. C20 diacid = O=C(O)CCCCCCCCCCCCCCCCCCC(=O)*; C18 diacid = O=C(O)CCCCCCCCCCCCCCCCC(=O)*; C17 diacid = O=C(O)CCCCCCCCCCCCCCCC(=O)*; γGlu = O=C(O)[C@H](CCC(=O)[*:2])N[*:1]; NMeY = CN[C@@H](Cc1ccc(O)cc1)C(=O)O; AEEA = NCCOCCOCC(=O)O; E1 = not defined here; K1 = not defined here; Aib = CC(C)(N)C(=O)O

T1: full-length human GIPR with an N-terminal FLAG tag (human, UniProt P48546 22-466)
T1 sequence (looked up): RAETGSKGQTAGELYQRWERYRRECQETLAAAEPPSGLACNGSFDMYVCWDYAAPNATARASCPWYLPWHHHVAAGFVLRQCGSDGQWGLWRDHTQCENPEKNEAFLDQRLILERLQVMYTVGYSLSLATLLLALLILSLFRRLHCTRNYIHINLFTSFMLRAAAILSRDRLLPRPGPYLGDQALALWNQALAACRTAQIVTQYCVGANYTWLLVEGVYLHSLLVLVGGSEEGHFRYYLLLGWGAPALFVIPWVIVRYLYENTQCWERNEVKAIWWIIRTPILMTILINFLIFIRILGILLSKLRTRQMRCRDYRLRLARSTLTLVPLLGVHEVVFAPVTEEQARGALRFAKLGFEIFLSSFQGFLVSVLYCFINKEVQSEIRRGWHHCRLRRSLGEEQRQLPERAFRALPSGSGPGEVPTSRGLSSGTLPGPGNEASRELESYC


Columns and labels:
[1] = target: T1, full-length human GIPR with an …; test: cell-based or functional assay
[2] = target: full-length human GLP-1R with an N-terminal FLAG tag (human, UniProt P43220 24-463); test: cell-based or functional assay

Binder	Human GIPR cAMP EC50, HEK293T [1]	Human GLP1R cAMP EC50, HEK293T [2]
[NMeY][Aib]EGTFISDYSIALDR[Aib]AQ[Aib]K([2OEGgEgE-C17 diacid])FVNWLLAQR-OH [Compound No. 9]	0.0004 nM	7.94 nM
[NMeY][Aib]EGTFISDYSI[Aib]LDR[Aib]K([AEEA-AEEA-γGlu-γGlu-C18 diacid])Q[Aib]NFVNWLLAQSPSSGAPPPS-NH2 [Compound No. 100]	0.0006 nM	> 1000 nM
[NMeY][Aib]EGTFISDYSI[Aib]LDR[Aib]AQ[Aib]K([AEEA-AEEA-γGlu-γGlu-C20 diacid])FVNWLLAQRPSSGAPPPS-NH2 [Compound No. 101]	0.0009 nM	39.8 nM
[NMeY][Aib]EGTFISDYSIALDR[Aib]K([GGPAPAP-C18 diacid])Q[Aib]DFVNWLLAQSPSSGAPPPS-OH [Compound No. 102]	0.0005 nM	117 nM
[NMeY][Aib]EGTFISDYSIALDR[Aib]AQ[Aib]K([GGPAPAP-C18 diacid])FVNWLLAQSPSSGAPPPS-OH [Compound No. 103]	0.0017 nM	29.5 nM
[NMeY][Aib]EGTFISDYSIALDR[Aib]AQ[Aib]K([GGPAPAP-γGlu-C18 diacid])FVNWLLAQSPSSGAPPPS-OH [Compound No. 104]	0.0005 nM	66.1 nM
[NMeY][Aib]EGTFISDYSIAK([GGPAPAP-C18 diacid])DR[Aib]AQ[Aib]DFVNWLLAQSPSSGAPPPS-OH [Compound No. 105]	0.0005 nM	562 nM
[NMeY][Aib]EGTFISDYSI[Aib]LDR[Aib]AA[Aib]K([AEEA-AEEA-γGlu-γGlu-C18 diacid])FVNWLLAQRPSSGAPPPS-NH2 [Compound No. 106]	0.0004 nM	12 nM
[NMeY][Aib]EGTFISDYSI[Aib]LDR[Aib]AA[Aib]K([AEEA-AEEA-γGlu-γGlu-C18 diacid])FVNWLLAQSPSSGAPPPS-NH2 [Compound No. 107]	0.0004 nM	45.7 nM
YXEGTFISDYSIXXDRXAQXDFVEWLLAQRG (N-methyl Tyr 1; Aib at 2,13,17,20; Lys(G5-C18 diacid) at 14; C-terminal OH) [Compound No. 108]	0.0002 nM	41.7 nM
[NMeY][Aib]EGTFISDYSI[Aib]LDR[Aib]K([AEEA-AEEA-γGlu-γGlu-C18 diacid])A[Aib]NFVNWLLAQSPSSGAPPPS-NH2 [Compound No. 109]	0.0004 nM	204 nM
[NMeY][Aib]EGTFISDYSIAK([AEEA-AEEA-γGlu-C17 diacid])DR[Aib]AQ[Aib]NFVNWLLAQS-OH (N-terminus assumed; SMILES CC[C@H](C)[C@H](NC(=O)[C@H](CO)NC(=O)[C@H](Cc1ccc(O)cc1)NC(=O)[C@H](CC(=O)O)NC(=O)[C@H](CO)NC(=O)[C@@H](NC(=O)[C@H](Cc1ccccc1)NC(=O)[C@@H](NC(=O)CNC(=O)[C@H](CCC(=O)O)NC(=O)C(C)(C)NC(=O)[C@H](Cc1ccc(O)cc1)NC)[C@@H](C)O)[C@@H](C)CC)C(=O)N[C@@H](C)C(=O)N[C@@H](CCCCNC(=O)COCCOCCNC(=O)COCCOCCNC(=O)CC[C@H](NC(=O)CCCCCCCCCCCCCCCC(=O)O)C(=O)O)C(=O)N[C@@H](CC(=O)O)C(=O)N[C@@H](CCCNC(=N)N)C(=O)NC(C)(C)C(=O)N[C@@H](C)C(=O)N[C@@H](CCC(N)=O)C(=O)NC(C)(C)C(=O)N[C@@H](CC(N)=O)C(=O)N[C@@H](Cc1ccccc1)C(=O)N[C@H](C(=O)N[C@@H](CC(N)=O)C(=O)N[C@@H](Cc1c[nH]c2ccccc12)C(=O)N[C@@H](CC(C)C)C(=O)N[C@@H](CC(C)C)C(=O)N[C@@H](C)C(=O)N[C@@H](CCC(N)=O)C(=O)N[C@@H](CO)C(=O)O)C(C)C) [Compound No. 10]	0.0002 nM	37.2 nM
[NMeY][Aib]EGTFISDYSI[Aib]LDR[Aib]AQ[Aib]K([AEEA-AEEA-γGlu-γGlu-C18 diacid])FVEWLLAQKG-OH (N-terminus assumed; SMILES CC[C@H](C)[C@H](NC(=O)[C@H](Cc1ccccc1)NC(=O)[C@@H](NC(=O)CNC(=O)[C@H](CCC(=O)O)NC(=O)C(C)(C)NC(=O)[C@H](Cc1ccc(O)cc1)NC)[C@@H](C)O)C(=O)N[C@@H](CO)C(=O)N[C@@H](CC(=O)O)C(=O)N[C@@H](Cc1ccc(O)cc1)C(=O)N[C@@H](CO)C(=O)N[C@H](C(=O)NC(C)(C)C(=O)N[C@@H](CC(C)C)C(=O)N[C@@H](CC(=O)O)C(=O)N[C@@H](CCCNC(=N)N)C(=O)NC(C)(C)C(=O)N[C@@H](C)C(=O)N[C@@H](CCC(N)=O)C(=O)NC(C)(C)C(=O)N[C@@H](CCCCNC(=O)COCCOCCNC(=O)COCCOCCNC(=O)CC[C@H](NC(=O)CC[C@H](NC(=O)CCCCCCCCCCCCCCCCC(=O)O)C(=O)O)C(=O)O)C(=O)N[C@@H](Cc1ccccc1)C(=O)N[C@H](C(=O)N[C@@H](CCC(=O)O)C(=O)N[C@@H](Cc1c[nH]c2ccccc12)C(=O)N[C@@H](CC(C)C)C(=O)N[C@@H](CC(C)C)C(=O)N[C@@H](C)C(=O)N[C@@H](CCC(N)=O)C(=O)N[C@@H](CCCCN)C(=O)NCC(=O)O)C(C)C)[C@@H](C)CC) [Compound No. 110]	0.0003 nM	100 nM
YXEGTFISDYSIAXDRXAQXDFVNWLLAQSPG (N-methyl Tyr 1; Aib at 2,17,20; Lys(G5-C20 diacid) at 14; C-terminal OH) [Compound No. 111]	0.0001 nM	14.1 nM
YXEGTFISDYSIALDRXAQXDFVNWLLAQSPG (N-methyl Tyr 1; Aib at 2,20; Lys(G5-C18 diacid) at 17; C-terminal OH) [Compound No. 113]	0.0003 nM	13.5 nM
YXEGTFISDYSIAXDRXAQXNFVNWLLAQSPG (N-methyl Tyr 1; Aib at 2,17,20; Lys(G5-C18 diacid) at 14; C-terminal OH) [Compound No. 114]	0.0001 nM	11.7 nM
YXEGTFISDYSIALDRXAQXDFVEWLLAQRG (N-methyl Tyr 1; Aib at 2,20; Lys(G5-C18 diacid) at 17; C-terminal OH) [Compound No. 115]	0.0003 nM	40.7 nM
[NMeY][Aib]EGTFISDYSIALDR[Aib]AQ[Aib]K([GGPAPAPgE-C18 diacid])FVNWLLAQSPG-OH [Compound No. 117]	0.002 nM	44.7 nM
YXEGTFISDYSIAXDRXAQXDFVEWLLAQSPG (N-methyl Tyr 1; Aib at 2,17,20; Lys(G5-C18 diacid) at 14; C-terminal OH) [Compound No. 118]	0.0007 nM	91.2 nM
[NMeY][Aib]EGTFISDYSIALDR[Aib]AQ[Aib]K([AEEA-AEEA-γGlu-γGlu-C18 diacid])FVEWLLAQSPG-OH (N-terminus assumed; SMILES CC[C@H](C)[C@H](NC(=O)[C@H](CO)NC(=O)[C@H](Cc1ccc(O)cc1)NC(=O)[C@H](CC(=O)O)NC(=O)[C@H](CO)NC(=O)[C@@H](NC(=O)[C@H](Cc1ccccc1)NC(=O)[C@@H](NC(=O)CNC(=O)[C@H](CCC(=O)O)NC(=O)C(C)(C)NC(=O)[C@H](Cc1ccc(O)cc1)NC)[C@@H](C)O)[C@@H](C)CC)C(=O)N[C@@H](C)C(=O)N[C@@H](CC(C)C)C(=O)N[C@@H](CC(=O)O)C(=O)N[C@@H](CCCNC(=N)N)C(=O)NC(C)(C)C(=O)N[C@@H](C)C(=O)N[C@@H](CCC(N)=O)C(=O)NC(C)(C)C(=O)N[C@@H](CCCCNC(=O)COCCOCCNC(=O)COCCOCCNC(=O)CC[C@H](NC(=O)CC[C@H](NC(=O)CCCCCCCCCCCCCCCCC(=O)O)C(=O)O)C(=O)O)C(=O)N[C@@H](Cc1ccccc1)C(=O)N[C@H](C(=O)N[C@@H](CCC(=O)O)C(=O)N[C@@H](Cc1c[nH]c2ccccc12)C(=O)N[C@@H](CC(C)C)C(=O)N[C@@H](CC(C)C)C(=O)N[C@@H](C)C(=O)N[C@@H](CCC(N)=O)C(=O)N[C@@H](CO)C(=O)N1CCC[C@H]1C(=O)NCC(=O)O)C(C)C) [Compound No. 119]	0.0009 nM	50.1 nM
YXEGTFISDYSIAXDRXAQRDFVEWLLAQSPG (N-methyl Tyr 1; Aib at 2,17; Lys(G5-C18 diacid) at 14; C-terminal OH) [Compound No. 120]	0.0003 nM	15.8 nM
YXEGTFISDYSIAXDRXAQKDFVEWLLAQRG (N-methyl Tyr 1; Aib at 2,17; Lys(G5-C18 diacid) at 14; 'K1' at 20 and 'E1' at 24 as printed; C-terminal OH) [Compound No. 121]	0.0005 nM	89.1 nM
[NMeY][Aib]EGTFISDYSI[K1]LDR[E1]AQ[Aib]K([AEEA-AEEA-γGlu-γGlu-C18 diacid])FVNWLLAQRG-OH (reading uncertain; also: 'K1' at 13 and 'E1' at 17, not explained) [Compound No. 122]	0.0008 nM	3.55 nM
